The results in this text go back to US20140050727A1 (MOCHIDA PHARMACEUTICAL, published 2014).

To fix the notation:
T1: Elastase, Human Neutrophil (human, UniProt P08246 30-247, limits assumed)
T1 sequence (looked up): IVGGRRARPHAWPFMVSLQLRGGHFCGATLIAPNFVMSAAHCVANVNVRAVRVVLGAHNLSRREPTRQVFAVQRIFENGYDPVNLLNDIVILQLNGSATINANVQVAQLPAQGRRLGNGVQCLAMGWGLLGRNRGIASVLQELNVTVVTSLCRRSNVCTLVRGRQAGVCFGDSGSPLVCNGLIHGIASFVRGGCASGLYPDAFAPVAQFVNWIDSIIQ

T2: human CD14 (human, UniProt P08571 20-375, limits assumed)
T2 sequence (looked up): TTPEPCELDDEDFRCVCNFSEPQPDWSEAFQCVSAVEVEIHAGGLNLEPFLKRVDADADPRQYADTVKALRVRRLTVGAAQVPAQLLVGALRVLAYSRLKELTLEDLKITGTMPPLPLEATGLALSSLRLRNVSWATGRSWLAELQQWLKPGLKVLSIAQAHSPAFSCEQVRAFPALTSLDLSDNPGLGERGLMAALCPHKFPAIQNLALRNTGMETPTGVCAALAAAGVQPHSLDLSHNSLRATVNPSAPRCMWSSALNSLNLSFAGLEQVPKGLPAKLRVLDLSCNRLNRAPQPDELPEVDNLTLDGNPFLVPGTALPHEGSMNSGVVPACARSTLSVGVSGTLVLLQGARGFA

B1: polypeptide Q19K/Y46D (other)
chain: AVLPQEEEGSGMAACNLPIVRGPCRAFIKLWAFDAVKGKCVLFPYGG
B2: polypeptide R11L/Q19K/Y46D (other)
chain: AVLPQEEEGSGMAACNLPIVLGPCRAFIKLWAFDAVKGKCVLFPYGG
B3: polypeptide Q19R/Y46D (other)
chain: AVLPQEEEGSGMAACNLPIVRGPCRAFIRLWAFDAVKGKCVLFPYGG
B4: polypeptide R11D/Q19K/Y46D (other)
chain: AVLPQEEEGSGMAACNLPIVDGPCRAFIKLWAFDAVKGKCVLFPYGG
B5: polypeptide R11E/Q19K/Y46E (other)
chain: AVLPQEEEGSGMAACNLPIVEGPCRAFIKLWAFDAVKGKCVLFPYGG
B6: polypeptide R11Q/Q19K/Y46D (other)
chain: AVLPQEEEGSGMAACNLPIVQGPCRAFIKLWAFDAVKGKCVLFPYGG
B7: polypeptide Q19R (other)
chain: AACNLPIVRGPCRAFIRLWAFDAVKGKCVLFPYGGCQGNGNKFYSEK
B8: polypeptide Q19R/Y46E (other)
chain: AACNLPIVRGPCRAFIRLWAFDAVKGKCVLFPYGGCQGNGNKFESEK
B9: polypeptide R11E/Y46E (other)
chain: AACNLPIVEGPCRAFIQLWAFDAVKGKCVLFPYGGCQGNGNKFESEK
B10: polypeptide Q19K/Y46E (other)
chain: AACNLPIVRGPCRAFIKLWAFDAVKGKCVLFPYGGCQGNGNKFESEK
B11: F1024S-SLPI(D2) with modified linker GSGGGGSGGGGSGGGGS (antibody)
heavy: QIQLVQSGPELKKPGESVKISCKASGYTFTDYAMNWVKQAPGNGLKWMGWINTQTGKPTYADDFKQRFVFSLETSASTAYLQINNLNIEDTATYFCTRSTFYYSSYIYGWYFDFWGPGTMVTVSSASTKGPSVFPLAPCSRSTSESTAALGCLVKDYFPEPVTVSWNSGALTSGVHTFPAVLQSSGLYSLSSVVTVPSSSLGTKTYTCNVDHKPSNTKVDKRVESKYGPPGPSGPAPEFLGGPSVFLFPPKPKDTLMISRTPEVTCVVVDVSQEDPEVQFNWYVDGVEVHNAKTKPREEQFNSTYRVVSVLTVLHQDWLNGKEYKCKVSNKGLPSSIEKTISKAKGQPREPQVYTLPPSQEEMTKNQVSLTCLVKGFYPSDIAVEWESNGQPENNYKTTPPVLDSDGSFFLYSRLTVDKSRWQEGNVFSCSVMHEALHNHYTQKSLSLSLGKGSGGGGSGGGGSGGGGSRRKPGKCPVTYGQCLMLNPPNFCEMDGQCKRDLKCCMGMCGKSCVSPVKA
light: DIVMTQSPTSISISVGERVTMNCKASQNVGSNVDWYQQKTGQSPKLLIYKASNRYTGVPDRFTGSGSGTDFTFTISNMQAVDLAVYYCMQSNTNPPWTFGGGTKLELKRTVAAPSVFIFPPSDEQLKSGTASVVCLLNNFYPREAKVQWKVDNALQSGNSQESVTEQDSKDSTYSLSSTLTLSKADYEKHKVYACEVTHQGLSSPVTKSFNRGEC
B12: F1024S-SLPI(D2) (antibody)
heavy: QIQLVQSGPELKKPGESVKISCKASGYTFTDYAMNWVKQAPGNGLKWMGWINTQTGKPTYADDFKQRFVFSLETSASTAYLQINNLNIEDTATYFCTRSTFYYSSYIYGWYFDFWGPGTMVTVSSASTKGPSVFPLAPCSRSTSESTAALGCLVKDYFPEPVTVSWNSGALTSGVHTFPAVLQSSGLYSLSSVVTVPSSSLGTKTYTCNVDHKPSNTKVDKRVESKYGPPGPSGPAPEFLGGPSVFLFPPKPKDTLMISRTPEVTCVVVDVSQEDPEVQFNWYVDGVEVHNAKTKPREEQFNSTYRVVSVLTVLHQDWLNGKEYKCKVSNKGLPSSIEKTISKAKGQPREPQVYTLPPSQEEMTKNQVSLTCLVKGFYPSDIAVEWESNGQPENNYKTTPPVLDSDGSFFLYSRLTVDKSRWQEGNVFSCSVMHEALHNHYTQKSLSLSLGKGSRRKPGKCPVTYGQCLMLNPPNFCEMDGQCKRDLKCCMGMCGKSCVSPVKA
light: DIVMTQSPTSISISVGERVTMNCKASQNVGSNVDWYQQKTGQSPKLLIYKASNRYTGVPDRFTGSGSGTDFTFTISNMQAVDLAVYYCMQSNTNPPWTFGGGTKLELKRTVAAPSVFIFPPSDEQLKSGTASVVCLLNNFYPREAKVQWKVDNALQSGNSQESVTEQDSKDSTYSLSSTLTLSKADYEKHKVYACEVTHQGLSSPVTKSFNRGEC
B13: F1024S-D2(3) (antibody)
heavy: QIQLVQSGPELKKPGESVKISCKASGYTFTDYAMNWVKQAPGNGLKWMGWINTQTGKPTYADDFKQRFVFSLETSASTAYLQINNLNIEDTATYFCTRSTFYYSSYIYGWYFDFWGPGTMVTVSSASTKGPSVFPLAPCSRSTSESTAALGCLVKDYFPEPVTVSWNSGALTSGVHTFPAVLQSSGLYSLSSVVTVPSSSLGTKTYTCNVDHKPSNTKVDKRVESKYGPPGPSGPAPEFLGGPSVFLFPPKPKDTLMISRTPEVTCVVVDVSQEDPEVQFNWYVDGVEVHNAKTKPREEQFNSTYRVVSVLTVLHQDWLNGKEYKCKVSNKGLPSSIEKTISKAKGQPREPQVYTLPPSQEEMTKNQVSLTCLVKGFYPSDIAVEWESNGQPENNYKTTPPVLDSDGSFFLYSRLTVDKSRWQEGNVFSCSVMHEALHNHYTQKSLSLSLGKGSTVAACNLPIVSGPCRAFIKLWAFDAVKGKCVLFPYGGCQGNGNKFDSEKECREYCGVPGDGDEELLRFSN
light: DIVMTQSPTSISISVGERVTMNCKASQNVGSNVDWYQQKTGQSPKLLIYKASNRYTGVPDRFTGSGSGTDFTFTISNMQAVDLAVYYCMQSNTNPPWTFGGGTKLELKRTVAAPSVFIFPPSDEQLKSGTASVVCLLNNFYPREAKVQWKVDNALQSGNSQESVTEQDSKDSTYSLSSTLTLSKADYEKHKVYACEVTHQGLSSPVTKSFNRGEC
B14: F1024S-SLPI(D1D2) (antibody)
heavy: QIQLVQSGPELKKPGESVKISCKASGYTFTDYAMNWVKQAPGNGLKWMGWINTQTGKPTYADDFKQRFVFSLETSASTAYLQINNLNIEDTATYFCTRSTFYYSSYIYGWYFDFWGPGTMVTVSSASTKGPSVFPLAPCSRSTSESTAALGCLVKDYFPEPVTVSWNSGALTSGVHTFPAVLQSSGLYSLSSVVTVPSSSLGTKTYTCNVDHKPSNTKVDKRVESKYGPPGPSGPAPEFLGGPSVFLFPPKPKDTLMISRTPEVTCVVVDVSQEDPEVQFNWYVDGVEVHNAKTKPREEQFNSTYRVVSVLTVLHQDWLNGKEYKCKVSNKGLPSSIEKTISKAKGQPREPQVYTLPPSQEEMTKNQVSLTCLVKGFYPSDIAVEWESNGQPENNYKTTPPVLDSDGSFFLYSRLTVDKSRWQEGNVFSCSVMHEALHNHYTQKSLSLSLGKGSGKSFKAGVCPPKKSAQCLRYKKPECQSDWQCPGKKRCCPDTCGIKCLDPVDTPNPTRRKPGKCPVTYGQCLMLNPPNFCEMDGQCKRDLKCCMGMCGKSCVSPVKA
light: DIVMTQSPTSISISVGERVTMNCKASQNVGSNVDWYQQKTGQSPKLLIYKASNRYTGVPDRFTGSGSGTDFTFTISNMQAVDLAVYYCMQSNTNPPWTFGGGTKLELKRTVAAPSVFIFPPSDEQLKSGTASVVCLLNNFYPREAKVQWKVDNALQSGNSQESVTEQDSKDSTYSLSSTLTLSKADYEKHKVYACEVTHQGLSSPVTKSFNRGEC
B15: modified F1024S-D2(R11S/R15T/Q19K/Y46D) (antibody)
heavy: QIQLVQSGPELKKPGESVKISCKASGYTFTDYAMNWVKQAPGNGLKWMGWINTQTGKPTYADDFKQRFVFSLETSASTAYLQINNLNIEDTATYFCTRSTFYYSSYIYGWYFDFWGPGTMVTVSSASTKGPSVFPLAPCSRSTSESTAALGCLVKDYFPEPVTVSWNSGALTSGVHTFPAVLQSSGLYSLSSVVTVPSSSLGTKTYTCNVDHKPSNTKVDKRVESKYGPPGPSGPAPEFLGGPSVFLFPPKPKDTLMISRTPEVTCVVVDVSQEDPEVQFNWYVDGVEVHNAKTKPREEQFNSTYRVVSVLTVLHQDWLNGKEYKCKVSNKGLPSSIEKTISKAKGQPREPQVYTLPPSQEEMTKNQVSLTCLVKGFYPSDIAVEWESNGQPENNYKTTPPVLDSDGSFFLYSRLTVDKSRWQEGNVFSCSVMHEALHNHYTQKSLSLSLGKGSTVAACNLPIVSGPCTAFIKLWAFDAVKGKCVLFPYGGCQGNGNKFDSEKECREYCGVPGDGDEELLRFSN
light: DIVMTQSPTSISISVGERVTMNCKASQNVGSNVDWYQQKTGQSPKLLIYKASNRYTGVPDRFTGSGSGTDFTFTISNMQAVDLAVYYCMQSNTNPPWTFGGGTKLELKRTVAAPSVFIFPPSDEQLKSGTASVVCLLNNFYPREAKVQWKVDNALQSGNSQESVTEQDSKDSTYSLSSTLTLSKADYEKHKVYACEVTHQGLSSPVTKSFNRGEC

Sequence of Human Factor Xa (P00742 41-488 limits assumed): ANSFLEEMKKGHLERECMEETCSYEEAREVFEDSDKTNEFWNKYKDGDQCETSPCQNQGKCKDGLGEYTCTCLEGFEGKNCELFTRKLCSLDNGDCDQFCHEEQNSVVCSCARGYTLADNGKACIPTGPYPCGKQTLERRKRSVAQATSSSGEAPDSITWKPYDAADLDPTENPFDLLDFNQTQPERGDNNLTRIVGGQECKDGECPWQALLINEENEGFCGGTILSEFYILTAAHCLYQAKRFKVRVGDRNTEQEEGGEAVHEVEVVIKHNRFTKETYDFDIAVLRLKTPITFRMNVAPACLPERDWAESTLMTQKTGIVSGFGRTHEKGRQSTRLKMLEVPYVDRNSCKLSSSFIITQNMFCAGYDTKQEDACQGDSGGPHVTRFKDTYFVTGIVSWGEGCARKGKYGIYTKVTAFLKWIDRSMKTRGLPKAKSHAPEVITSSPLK

The first test addresses Human Factor Xa (human, UniProt P00742 41-488, limits assumed). The experiment in a line: cell-based or functional assay.
With B1, the FXa-inhibiting activity was ~20 times that of polypeptide AN68.

B2: the FXa-inhibiting activity was ~16 times that of polypeptide AN68.

For B3, the FXa-inhibiting activity was ~18 times that of polypeptide AN68.

Regarding B4, the FXa-inhibiting activity is ~5 times that of polypeptide AN68.

Take B5: the FXa-inhibiting activity is ~13 times that of polypeptide AN68.

In the case of B6, the FXa-inhibiting activity was ~20 times that of polypeptide AN68.

Consider B7, for which the FXa-inhibiting activity is ~6 times that of polypeptide AN68.

For B8, the FXa-inhibiting activity was ~10 times that of polypeptide AN68.

For the molecule B9, the FXa-inhibiting activity is ~3 times that of polypeptide AN68.

B10: the FXa-inhibiting activity was ~10 times that of polypeptide AN68.

For a further test, the target named is T1, Elastase, Human Neutrophil. The experiment in a line: cell-based or functional assay.
With B11, the “50% inhibitory concentration (elastase inhibitory activity)” value (from here on “50% inhibitory concentration”) worked out at 11.6 µg/mL.

Take B12: the “50% inhibitory concentration” value stood at 26.9 µg/mL.

For the molecule B13, the “50% inhibitory concentration” value came out at 8.9 µg/mL.

On to B14, for which the “50% inhibitory concentration” value came out at 22.5 µg/mL.

B15: the “50% inhibitory concentration” value came to 4.43 µg/mL.

In another test the target is T2, human CD14. Kind of test: cell-based or functional assay.
Turning to B13, the “IC50 for inhibition of LPS-induced E-Selectin expression in HUVEC” value was found to be 0.43 mg/L, the “IC50 for inhibition of LPS-induced IL-6 production in HUVEC” value came to 0.38 mg/L, the “IC50 for inhibition of LPS-induced TNF-α production in human peripheral blood mononuclear cells” value was found to be 0.58 mg/L and the “IC50 for inhibition of LPS-induced procoagulant activity (PCA) in human peripheral blood mononuclear cells” value turned out to be 20.9 mg/L.
